These results are taken from patent EP4725966A1, “HUMAN EPIDERMAL GROWTH FACTOR 3 ANTIBODY, PREPARATION METHOD THEREFOR, AND USE THEREOF” (priority 2023, dated 2024).

Series [1] concerns HER3-overexpressing A375 cells. Kind of series: Cell imaging of internalization. Type of series: cell-based. The following applies: 100 nM, FIG. 11. The method, then: A cell imaging microplate detection system was used to monitor the internalization of hHE4-G1W, hHE4-G1W-DXd, patritumab, and patritumab-DXd after binding to HER3 on the surface of A375 tumor cells. hHE4-G1W, hHE4-G1W-DXd, patritumab, and patritumab-DXd (each 100 nM) were incubated with HER3-overexpressing A375 cells at 4°C for 30 minutes, respectively. Unbound antibodies were removed by washing, and PE-labeled goat anti-human Fc secondary antibody (Jackson) was added. The mixture was incubated at 4°C for 30 minutes, and then the unbound secondary antibody was removed by washing. When the antibodies were bound to the surface of A375 cells and had not yet undergone internalization, these samples were designated as the 0h samples. Fluorescence images were acquired using a Biotek Cytation 1 imaging reader. Cells were then incubated at 37°C for 3 hours and imaged again.

The subject of series [2] is A375 cells overexpressing human HER3. Put plainly: ADC cytotoxicity, CellTiter-Glo. Type of series: cell-based. To be noted: Example 21, FIG. 13. On the technique in general: ATP-based viability assays read luminescence as a measure of living cells.
The subject of another series is SW620 tumor. Kind of series: Tumor inhibition in SW620 tumor-bearing mice. Type of series: in vivo, Female SCID mice. The following applies: for tumor growth: single dose, FIG. 14. The method, then: (§1) The anti-tumor efficacy of hHE4-G1W-DXd and cHE5-G1W-DXd was evaluated in SW620 tumor-bearing mice. Female SCID mice were subcutaneously injected with SW620 cells in the dorsal region to establish the xenograft model. After tumor establishment, mice were randomly divided into nine groups and treated with a single dose. Three groups served as negative controls: one group received PBS, and two groups received IgG-DXd at low dose (3 mg/kg) and high dose (6 mg/kg), respectively. Experimental groups were administered with hHE4-G1W-DXd, cHE5-G1W-DXd, or patritumab-DXd at 3 mg/kg or 6 mg/kg. The average Dxd-to-antibody ratio was 8. Mouse body weights and tumor volumes were measured.

The subject of another series is DiFi tumor. Kind of series: Tumor inhibition in DiFi tumor-bearing mice. The class given is in vivo, Female SCID mice. The procedure: as §1, with “DiFi” for “SW620”, “once per week for three weeks.” for “with a single dose.”
The test system of series [3] is human HER3-overexpressing JIMT-1 cells. Kind of series: ADC cytotoxicity. Type of series: cell-based. The following applies: FIG. 13. The procedure:
(§2) A375 and OVCAR3 cells were seeded in 96-well plates at 5,000 cells per well, and gradient-diluted ADCs (cHE4-G1W-DXd, cHE5-G1W-DXd, cHE7-G1W-DXd, patritumab-DXd, and IgG-DXd) were added. After incubation at 37°C for 5 days, cell viability was measured using CellTiter-Glo (Promega) to evaluate cytotoxicity of the ADCs.
(§3) The cytotoxicity of antibody-drug conjugates based on hHE4-G1W against HER3-expressing HCC1569, A375, and JIMT-1 tumor cells was tested. Antibody-drug conjugates were prepared as described in Example 11. Hydrophobic interaction chromatography indicated the antibody-to-Dxd ratios for cHE4-G1W-DXd, hHE4-G1W-DXd, patritumab-DXd, and negative control IgG-DXd were 1:7, 1:8, 1:7.8, and 1:8, respectively.

The test system of series [4] is HER3-expressing HCC1569 cells. Kind of series: ADC cytotoxicity. The class given is cell-based. The following applies: FIG. 13. The procedure: as §2, §3

B1: hHE4-G1W-DXd (conjugate)
heavy: QVQLVESGGGLVKPGGSLRLSCAASGFTFSSYVMSWVRQAPGKGLEWVATISDGDSSTYYADSVKGRFTISRDNAKNSLYLQMNSLRAEDTAVYYCARDKGHGYDEGAFVYWGQGTLVTVSS
light: DIQMTQSPSSLSASVGDRVTITCRASENIYSYLAWYQQKPGKAPKLLIYNAKTLAEGVPSRFSGSGSGTDFTLTISSLQPEDFATYYCQNHYGTPYTFGQGTKLEIKR
modifications: left off: a dimerising Fc or GST
For the molecule B1, in series [1] (0 hour), the “binding to HER3 on the surface of A375 cells” value is “bound to HER3 expressed on the cell surface”. Besides, in series [1] (after 3 hours at 37°C), the “internalization into A375 cells” value is on record as “internalized into the A375 cells”. Moreover, the “cytotoxicity against A375 cells” value in series [2] is given as “significant cytotoxicity”. The values for the tumor growth result with SW620 tumor (3 mg/kg) and in the series on SW620 tumor (6 mg/kg) were “prevented tumor growth” and “complete tumor regression in one mouse”, respectively. In addition, the “tumor inhibition compared with patritumab-DXd” value with SW620 tumor (overall conclusion, SW620) is reported as “superior tumor inhibition against SW620 tumor compared with patritumab-DXd”; in the series on DiFi tumor (low dose of 3 mg/kg, once per week for three weeks), “superior tumor inhibition compared with patritumab-DXd”; in the series with DiFi tumor (overall conclusion, DiFi), “equivalent or improved tumor inhibition against DiFi tumors compared with patritumab-DXd”. Moreover, the “cytotoxicity against JIMT-1 cells” value in series [3] is “significant cytotoxicity”. Besides, the “cytotoxicity compared with patritumab-DXd” value in series [3] (JIMT-1 cells) is “superior cytotoxicity compared with patritumab-DXd”. For the same molecule, the “cytotoxicity against HCC1569 cells” value in series [4] was “significant cytotoxicity”.
